Measured values taken from article PMC12148439.

Tests used:
[1] = biological target: CitAGacS649 (chimeric protein: GacS649 with its PDC domain replaced by the PDC domain of CitA from Klebsiella pneumoniae, C-terminal octa-histidine tag) (Pseudomonas aeruginosa | Klebsiella pneumoniae) (UniProt P52687); test: MST; CitAGacS649 labelled with AlexaFluor 488 at 80 nM, RetSHK titrated from 140 uM to 1.06 nM, 37 °C, 0.007% DDM, with 10 mM sodium citrate
[2] = biological target: CitAGacS649 (chimeric protein: GacS649 with its PDC domain replaced by the PDC domain of CitA from Klebsiella pneumoniae, C-terminal octa-histidine tag) (Pseudomonas aeruginosa | Klebsiella pneumoniae) (UniProt P52687); test: MST; GacS649 or CitAGacS649 labelled with AlexaFluor 488 at 80 nM, RetSHK titrated from 140 uM to 1.06 nM, 37 °C, 0.007% DDM, no citrate; apparent constants
[3] = biological target: GacS649 (GacS residues 1-649 with C-terminal octa-histidine tag) (Pseudomonas aeruginosa); test: as above

B1: RetSHK (histidine kinase region of the sensor histidine kinase RetS, residues 413-649) (domain or fragment)
chain: QTKAEFLAKISHEIRTPMNGVLGMTELLLGTPLSAKQRDYVQTIHSAGNELLTLINEILDISKLESGQIELDEVQFDLNALIEDCLDIFRVKAEQQRIELISFTQPQVPRVIGGDPTRLRQVVLSLLDNAFKQTEEGEILLVVALDDQGETPRLRIAVQDSGHPFDAKEREALLTAELHSGDFLSASKLGSHLGLIIARQLVRLMGGEFGIQSGSSQGTTLSLTLPLDPQQLENPTA
fold decrease in affinity with 10 mM citrate against no citrate [1]: 5 fold
Kd [2]: 10 µM
Kd [3]: 10 µM
